We go through 1 molecule from patent US20070243589A1 (Pfizer, published 2007).

The target in assay [1] is T1, human IL-22 (human, UniProt Q9GZX6 34-179).
T1 sequence: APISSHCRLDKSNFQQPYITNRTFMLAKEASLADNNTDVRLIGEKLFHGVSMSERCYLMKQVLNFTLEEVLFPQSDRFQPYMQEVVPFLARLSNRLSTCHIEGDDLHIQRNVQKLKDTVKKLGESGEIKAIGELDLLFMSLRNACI
As to the kind of experiment: cell-based or functional assay.

In assay [2] the target is T2, murine IL-22 (murine, UniProt Q9JJY9 34-179).
T2 sequence: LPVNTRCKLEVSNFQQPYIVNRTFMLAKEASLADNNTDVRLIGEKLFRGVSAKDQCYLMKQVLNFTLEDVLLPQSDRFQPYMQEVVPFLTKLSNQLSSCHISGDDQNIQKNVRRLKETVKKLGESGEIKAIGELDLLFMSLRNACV
As to the kind of experiment: cell-based or functional assay.

The target of assay [3] is T3, rat IL-22 (rat, UniProt G3V6X6 34-178).
T3 sequence: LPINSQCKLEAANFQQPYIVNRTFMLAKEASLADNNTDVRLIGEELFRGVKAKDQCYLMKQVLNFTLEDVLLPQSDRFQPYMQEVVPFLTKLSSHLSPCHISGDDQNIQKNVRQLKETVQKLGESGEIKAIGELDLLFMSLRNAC
As to the kind of experiment: cell-based or functional assay.

The target of assay [4] is monkey IL-22 (monkey). As to the kind of experiment: cell-based or functional assay.
The target in assay [5] is T1, human IL-22. As to the kind of experiment: cell-based or functional assay. This is another data set of the same source.
Assay [6] has as its target T2, murine IL-22. As to the kind of experiment: cell-based or functional assay. The source holds these as a separate data set.
The target of assay [7] is T3, rat IL-22. As to the kind of experiment: cell-based or functional assay. The source holds these as a separate data set.
Assay [8] has as its target monkey IL-22 (monkey). As to the kind of experiment: cell-based or functional assay. This is another data set of the same source.
A further assay deals with T4, human IL-20 (human, UniProt Q9NYY1 25-176).
T4 sequence (looked up): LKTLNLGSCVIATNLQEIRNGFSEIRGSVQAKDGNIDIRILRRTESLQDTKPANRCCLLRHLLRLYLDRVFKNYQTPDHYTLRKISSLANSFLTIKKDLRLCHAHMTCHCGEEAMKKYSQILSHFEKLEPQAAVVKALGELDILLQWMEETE
As to the kind of experiment: BIA (surface plasmon resonance).

A further assay has as its target T5, human IL-24 (human, UniProt Q13007 52-206, limits assumed).
T5 sequence (looked up): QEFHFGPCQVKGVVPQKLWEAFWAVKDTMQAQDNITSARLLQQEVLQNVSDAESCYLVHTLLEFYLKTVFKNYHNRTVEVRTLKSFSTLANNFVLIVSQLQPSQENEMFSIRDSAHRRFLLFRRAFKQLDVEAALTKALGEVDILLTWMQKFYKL
As to the kind of experiment: BIA (surface plasmon resonance).

A further assay addresses T6, human IL-28A (human, UniProt Q8IZJ0 26-200).
T6 sequence (looked up): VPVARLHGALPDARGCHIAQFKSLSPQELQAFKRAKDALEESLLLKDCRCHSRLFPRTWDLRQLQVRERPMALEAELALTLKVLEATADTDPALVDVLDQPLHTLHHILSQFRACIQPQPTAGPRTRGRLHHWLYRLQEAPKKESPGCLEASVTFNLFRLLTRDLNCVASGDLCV
As to the kind of experiment: BIA (surface plasmon resonance). For orientation: SPR reads the build-up and loss of mass on a sensor chip optically.

The target of a further assay is human IL-29 (human, UniProt Q8IU54 20-200). As to the kind of experiment: BIA (surface plasmon resonance).
Chain of human IL-29 (Q8IU54 20-200 limits assumed): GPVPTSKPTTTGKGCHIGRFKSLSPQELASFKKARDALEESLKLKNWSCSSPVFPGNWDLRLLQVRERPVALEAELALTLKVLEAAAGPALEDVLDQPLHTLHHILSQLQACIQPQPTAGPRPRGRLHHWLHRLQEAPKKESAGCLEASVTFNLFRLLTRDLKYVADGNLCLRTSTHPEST
The target of the next assay is T7, human IFN-ω (human, UniProt P05000 24-195).
T7 sequence (looked up): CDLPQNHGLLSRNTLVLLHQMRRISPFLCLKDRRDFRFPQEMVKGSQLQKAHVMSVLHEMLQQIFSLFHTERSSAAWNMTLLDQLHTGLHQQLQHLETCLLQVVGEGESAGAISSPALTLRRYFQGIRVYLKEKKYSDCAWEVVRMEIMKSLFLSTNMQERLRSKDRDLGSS
As to the kind of experiment: BIA (surface plasmon resonance).

Another assay deals with human IL-10 (human, UniProt P22301 19-178). As to the kind of experiment: BIA (surface plasmon resonance).
Chain of human IL-10 (P22301 19-178 limits assumed): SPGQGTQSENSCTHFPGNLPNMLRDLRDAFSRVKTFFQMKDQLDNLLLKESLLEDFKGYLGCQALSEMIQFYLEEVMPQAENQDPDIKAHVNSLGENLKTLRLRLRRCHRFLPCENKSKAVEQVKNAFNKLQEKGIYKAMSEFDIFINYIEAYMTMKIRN
The next assay concerns the target T8, human IL-19 (human, UniProt Q9UHD0 25-177).
T8 sequence (looked up): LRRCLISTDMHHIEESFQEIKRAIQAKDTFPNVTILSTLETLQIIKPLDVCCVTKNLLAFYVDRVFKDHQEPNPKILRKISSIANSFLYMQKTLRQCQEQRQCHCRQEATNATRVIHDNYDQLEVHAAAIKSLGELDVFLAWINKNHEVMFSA
As to the kind of experiment: BIA (surface plasmon resonance).

Assay [9] has as its target T1, human IL-22. As to the kind of experiment: SPR (Biacore), antibody amine-coupled to CM5 chip, human IL-22 as analyte, 1:1 model. Here is the method: To prepare the biosensor surface for the human monoclonal antibodies, either human monoclonal antibody (356A11 or 368D04) or control antibody PD-1 (#17) were immobilized onto a research-grade carboxymethyl dextran chip (CM5) using standard amine coupling. The surface was activated with EDC/NHS. The capturing antibodies were injected at a concentration of 1 μg/ml in sodium acetate buffer (pH 5.5). Remaining activated groups were blocked with 1.0 M ethanolamine (pH 8.0). The first flow cell was used as a reference surface to correct for bulk refractive index, matrix effects, and non-specific binding. The second, third, and fourth flow cells were coated with the capturing molecule.
The kinetic data were analyzed using BIAevaluation software 3.0.2 applied to a 1:1 model. The apparent dissociation (Kd) and association (Kₐ) rate constants were calculated from the appropriate regions of the sensorgrams using a global analysis. The affinity constants of the interaction between antibody and analyte were calculated from the kinetic rate constants by the following formulae: KD=Kd/Kₐ, where KD is the dissociation constant and KA=Kₐ/Kd, where KA is the association constant.

The term Kd denotes the concentration at which binding is half-saturated. What is called koff is a measure of how fast the partners let go of each other. Broadly, the kon is the rate constant with which the complex forms.

B1: 356A11, human monoclonal anti-IL-22 antibody as used in Examples 10 and 11 (antibody, V domains shown)
VH: QVQLVQSGAEVKKPGASVKVSCKASGYTFTNYYMHWVRQAPGQGLEWVGWINPYTGSAFYAQKFRGRVTMTRDTSISTAYMELSRLRSDDTAVYYCAREPEKFDSDDSDVWGRGTLVTVSS
VL: QAVLTQPPSVSGAPGQRVTISCTGSSSNIGAGYGVHWYQQLPGTAPKLLIYGDSNRPSGVPDRFSGSKSGTSASLAITGLQAEDEADYYCQSYDNSLSGYVFGGGTQLTVLG
As for B1, the “IC50 in GROa cell based assay” value with human IL-22 [1] came out at 0.124 nM; with murine IL-22 [2] it was 0.144 nM; with rat IL-22 [3], 0.211 nM; with monkey IL-22 [4], 0.0896 nM. For the same molecule, the “IC50 in BaF3 cell based assay” value with human IL-22 [5] came out at 0.00357 nM; with murine IL-22 [6], 0.00253 nM; with rat IL-22 [7] it was 0.0107 nM; in the assay with monkey IL-22 [8], 0.00258 nM. In addition, the binding result with human IL-20, in the assay with human IL-24, in the assay with human IL-28A, with human IL-29, with human IFN-ω and in the assay with human IL-10 was “no binding” throughout. For the same molecule, the binding result with human IL-19 is “no binding”. In addition, the Ka with human IL-22 [9] is 1.85e+10 M⁻¹. For the same molecule, in the assay with human IL-22 [9], the Kd turned out to be 0.054 nM. The molecule also showed a koff with human IL-22 [9] of 4.27e-06 s⁻¹. Further, the kon with human IL-22 [9] was determined as 79100 M⁻¹ s⁻¹.
